Reference: patent publication US12702701B2, “Compositions and methods for treating granulomatosis with polyangiitis” (Canem Holdings, LLC, priority 2015, dated 2026)

T1: proteinase-3 (Homo sapiens, UniProt P24158)
T1 sequence (P24158 28-248): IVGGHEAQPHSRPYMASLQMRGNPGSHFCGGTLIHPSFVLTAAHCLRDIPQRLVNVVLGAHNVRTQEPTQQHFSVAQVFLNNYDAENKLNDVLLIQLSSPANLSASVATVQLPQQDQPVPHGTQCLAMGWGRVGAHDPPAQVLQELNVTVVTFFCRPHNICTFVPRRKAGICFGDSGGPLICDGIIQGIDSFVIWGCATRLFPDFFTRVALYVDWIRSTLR


Experiments:
proteinase-3 [1] = target: T1, proteinase-3; conditions: cited from earlier work
[2] = system: HUVEC (human umbilical vein endothelial cells); test: HUVEC cytotoxicity assay: calcein release after attack by TNF-primed, α-PR3 mAb-activated neutrophils; assay type: cell-based; conditions: for % Release / Mean (fluorescence): 0.25 mg/mL, α-PR3 mAbs +, 4 hours at 37° C.; for response in fluorescence release: all doses tested
Excerpt: A cell culture provides a model of the blood vessels by using HUVEC (human umbilical vein endothelial cells) cultured to 80-90% confluence as a representation of the blood vessel wall. The following is a model of GPA in cell culture using HUVEC and human blood neutrophils that are primed and activated by c-ANCA in the same manner as the disease. HUVEC are sensitized to inflammatory damage by pre-exposure to BCNU and ionomycin. In the disease state of Granulomatosis with Polyangiitis (GPAANegener's), activated neutrophils attack the blood vessel walls. This study evaluated two compounds, A1PI (α-1-antitrypsin; Sigma Aldrich Cat. No. A9024, lot SLBL9794V, 90% purity) and elafin (AnaSpec Cat. No. AS-61641, lot 1360190, 95% purity), and their ability to mitigate the induced damage to HUVEC as a model of the vascular endothelium compared to the negative control al-antichymotrypsin (Athens Research & Technology, Cat. No. 16-16-012400, lot AX2014-02, >95% purity). al-Antichymotrypsin was chosen as a negative control due to its structural similarity to A1PI and lack of activity against the PR3 receptor. α-1-Antichymotrypsin inhibits neutrophil cathepsin G and mast cell chymase.
Confluent HUVEC was labeled with calcein-AM as a fluorescent marker. Calcein-AM is a cell-permeant dye that can be used to determine cell viability in HUVEC (and most eukaryotic cells). In live cells the non-fluorescent calcein AM is converted to a green-fluorescent calcein upon uptake after acetoxymethyl ester hydrolysis by intracellular esterases. Calcein-AM dye requires very small quantities of cells while maintaining the same sensitivity as the traditional ^51Cr assay. Once taken up by the cell, free calcein is generally membrane impermeable and only permeates through gap junctions. Although there is some leakage over the incubation period, this is accounted for through the use of a control of HUVEC alone, labelled with Calcein-AM and used to determine the baseline fluorescence level accounting for normal cellular processes.
Peripheral blood neutrophils were primed to enhance expression of the PR-3 receptor (proteinase 3) with 50 U/mL TNF. A high proportion of membrane PR3 positive neutrophils is a risk factor for the development of vasculitis, and elevated membrane PR3 levels are associated with a higher relapse rate in patients with Wegener granulomatosis. Activated neutrophils were then added (5×10^5 neutrophils/well) to plated calcein labeled HUVEC to produce an inflammatory response. Four dose concentrations of A1PI (0.25, 0.5, 1.0 and 2.0 mg/mL) and one dose of elafin (0.25 mg/mL) were evaluated for prevention of the activation of neutrophils and lysis of the cells. One dose concentration of the negative control al antichymotrypsin (0.25 mg/mL) was evaluated.
Three a-PR-3 MoAbs [monoclonal antibodies (15 μg/mL of α-PR3 WGM2 and 5 μg/ml each of a-PR3 4A5 and α-PR 6A6, for a total of 25 μg/mL)] were added to activate the neutrophils to attack the HUVEC, causing lysis of the HUVEC. α-PR3 4A5 and α-PR3 6A6 clones were obtained from Eurodiagnostica and the α-PR3 WGM2 from Abcam. These 3 clones were selected to provide a model of the polyclonal response that would be seen in vivo and represent three binding sites on the PR-3 receptor (Van Der Geld, Characterization of monoclonal antibodies to PR3 as candidate tools for epitope mapping or human anti-PR3 autoantibodies, 1999). After addition of the activated neutrophils, test compounds and α-PR3 mAbs, cells were incubated for 4 hours at 37° C. Following incubation the supernatant was evaluated for fluorescence. When neutrophils attack the HUVEC and cell lysis occurs, the fluorescent calcein label is released from damaged membranes and measured in the supernatants.
A1PI provided a response that was dose dependent and directional in nature. The mean fluorescence was determined from […] aliquots of supernatant from each well, with 6 wells for each condition (18 replicates total). […]

proteinase-3 [3] = target: T1, proteinase-3; conditions: Nobar et al, FEBS 272 (2005); cited from earlier work

Row | Molecule | equilibrium dissociation constant (Ki) for proteinase-3/elafin association (proteinase-3 [1]) [nM] | % Release [2] [%] | Mean (fluorescence) [2] | response in fluorescence release [2] | Ki values (proteinase-3 [3]) | K of Proteinase-3/Trappin-2 associations (proteinase-3 [1]) [nm]
1 | Elafin: mature product of Trappin-2, C-terminal 57 amino acids (61-117 of SEQ ID NO: 9); AnaSpec Cat. No. AS-61641 (AQEPVKGPVSTKPGSCPIILIRCAMLNPPNRCLKDTDCPGIKKCCEGSCGMACFVPQ; listed as Homo sapiens) | 20 | 6.2 | 5455.7 | showed a functional response | sub-nanomolar range | –
2 | Trappin-2: precursor of elafin, 117 amino acids, SEQ ID NO: 9 | – | – | – | – | sub-nanomolar range | 12
3 | Negative K: negative control α1-antichymotrypsin (Athens Research & Technology), structurally similar to A1PI, lacks activity against the PR3 receptor (protein) HPNSPLDEENLTQENQDRGTHVDLGLASANVDFAFSLYKQLVLKAPDKNVIFSPLSISTALAFLSLGAHNTTLTEILKGLKFNLTETSEAEIHQSFQHLLRTLNQSSDELQLSMGNAMFVKEQLSLLDRFTEDAKRLYGSEAFATDFQDSAAAKKLINDYVKNGTRGKITDLIKDLDSQTMMVLVNYIFFKAKWEMPFDPQDTHQSRFYLSKKKWVMVPMMSLHHLTIPYFRDEELSCTVVELKYTGNASALFILPDQDKMEEVEAMLLPETLKRWRDSLEFREIGELYLPKFSISRDYNLNDILLQLGIEEAFTSKADLSGITGARNLAVSQVVHKAVLDVFEEGTEASAATAVKITLLSALVETRTIVRFNRPFLMIIVPTDTQNIFFMSKVTNPKQA | – | 21.9 | 4417.7 | failing to provide a meaningful change | – | –
